Experimental data from paper PMC10679814, “Yeast lunapark regulates the formation of trans-Sey1p complexes for homotypic ER membrane fusion” (iScience, 2023).

T1: His6-tagged Sey1p-(1-283) (S. cerevisiae, UniProt Q99287 1-283)
T1 construct: Sey1p, S. cerevisiae, amino acids 1-283 (GTPase domain); in pET28a; also called GTPase domain of Sey1p; source: E. coli Rosetta-2 DE3, purified (Ni-NTA)
T1 sequence (looked up): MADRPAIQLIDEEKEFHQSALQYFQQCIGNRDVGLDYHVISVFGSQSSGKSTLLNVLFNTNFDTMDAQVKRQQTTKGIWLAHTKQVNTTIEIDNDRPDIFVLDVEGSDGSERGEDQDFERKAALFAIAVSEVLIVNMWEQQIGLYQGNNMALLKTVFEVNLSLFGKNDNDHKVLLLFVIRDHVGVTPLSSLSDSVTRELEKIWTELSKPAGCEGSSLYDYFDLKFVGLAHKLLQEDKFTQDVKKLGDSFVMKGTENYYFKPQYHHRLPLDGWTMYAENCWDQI

T2: His6-tagged Sey1p-(1-675), the N-terminal cytoplasmic region of Sey1p (S. cerevisiae, UniProt Q99287 1-675)
T2 construct: in pET28a; source: E. coli Rosetta-2 DE3, purified (Ni-NTA)
T2 sequence (looked up): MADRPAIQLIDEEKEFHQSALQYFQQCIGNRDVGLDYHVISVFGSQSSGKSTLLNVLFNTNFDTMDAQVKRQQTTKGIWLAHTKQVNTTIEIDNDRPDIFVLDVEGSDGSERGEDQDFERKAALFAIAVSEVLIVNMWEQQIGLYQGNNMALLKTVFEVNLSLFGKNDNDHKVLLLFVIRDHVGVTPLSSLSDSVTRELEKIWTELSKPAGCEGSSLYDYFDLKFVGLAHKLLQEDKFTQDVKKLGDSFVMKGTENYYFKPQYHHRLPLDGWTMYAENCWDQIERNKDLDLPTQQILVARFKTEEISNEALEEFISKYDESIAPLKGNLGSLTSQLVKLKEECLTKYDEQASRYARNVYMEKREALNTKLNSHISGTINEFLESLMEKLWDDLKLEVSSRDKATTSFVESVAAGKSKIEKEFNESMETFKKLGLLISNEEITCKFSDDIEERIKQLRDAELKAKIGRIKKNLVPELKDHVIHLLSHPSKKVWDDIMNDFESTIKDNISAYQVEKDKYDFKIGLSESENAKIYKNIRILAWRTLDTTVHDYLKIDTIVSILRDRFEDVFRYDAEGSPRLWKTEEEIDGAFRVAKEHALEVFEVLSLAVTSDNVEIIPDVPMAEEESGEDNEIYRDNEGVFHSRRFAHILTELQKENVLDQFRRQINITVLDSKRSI

B1: Lnp1p peptide, a synthetic peptide with the N-terminal region (amino acids 1-52) of Lnp1p (peptide, UniProt P38878 1-52, looked up)
peptide: MFSALGKWVRGSRNDKDFVTKYTADLSQITSQIHQLDVALKKSQSILSQWQS
notes: Lnp1p (yeast lunapark), S. cerevisiae, amino acids 1-52; also called LNP1 peptide; source: synthetic peptide (custom, Anygen)

Columns and labels:
[1] = molecular target: Sey1p-ΔTM (S. cerevisiae); assay: SEC; Superdex 200 (10/300), 20 mM HEPES-NaOH pH 7.4, 150 mM NaCl; Sey1p-ΔTM incubated at 30°C for 1 h with GMP-PNP, without or with the Lnp1p peptide
[2] = molecular target: T1, His6-tagged Sey1p-(1-283); assay: pull-down; 40 μg his6-tagged protein with 20 μM Lnp1p peptide in RB150 buffer, 0.4% Triton X-100, 20 mM imidazole, 4°C 2 h; Ni-NTA agarose 30 min; SDS-PAGE, Coomassie; settings: both partners purified
[3] = molecular target: T2, His6-tagged Sey1p-(1-675), the …; assay: as above; settings: both partners purified

Molecule | stoichiometry N [1] | binding result [2] | binding result [3]
Sey1p-ΔTM (domain or fragment) | 2 |  | 
B1 |  | binds | binds
